Laboratory results reported in US7462599.
Blank lines part the entries; values can stand above or below the substance they belong to.

Experiments:
[1] = molecular target: recombinant human glutaminyl cyclase (QC, EC 2.3.2.5) (human) (UniProt Q16769); experiment: competitive inhibition of the human QC catalyzed reaction, 30° C, 0.05 M Tris-HCl pH 8.0, 5 mM EDTA
[2] = tested on: T1, H-Gln(NMe)-Phe-Lys-Ala-Glu-NH2
T1 sequence: QFKAE

[3] = tested on: T2, H-Gln-Ala-Ala-Ala-Ala-NH2
T2 sequence: QAAAA

[4] = tested on: T3, H-Gln-Ala-Ala-NH2
T3 sequence: QAA

[5] = tested on: T4, H-Gln-Ala-Ala-Ser-Ala-Ala-NH2
T4 sequence: QAASAA

[6] = tested on: T5, H-Gln-Ala-NH2
T5 sequence: QA

[7] = tested on: T6, H-Gln-Ala-OH
T6 sequence: QA

[8] = tested on: T7, H-Gln-Arg-Gly-Ile-NH2
T7 sequence: QRGI

[9] = tested on: T8, H-Gln-Arg-Tyr-Phe-NH2
T8 sequence: QRYF

[10] = tested on: T9, H-Gln-Asn-Gly-Ile-NH2
T9 sequence: QNGI

[11] = tested on: T10, H-Gln-Gln-OH
T10 sequence: QQ

[12] = tested on: T11, H-Gln-Gln-Tyr-Phe-NH2
T11 sequence: QQYF

[13] = tested on: T12, H-Gln-Glu-Ala-Ala-NH2
T12 sequence: QEAA

[14] = tested on: T13, H-Gln-Glu-Ala-Phe-NH2
T13 sequence: QEAF

[15] = tested on: T14, H-Gln-Glu-Asp-Leu-NH2
T14 sequence: QEDL

[16] = tested on: T15, H-Gln-Glu-OH
T15 sequence: QE

[17] = tested on: T16, H-Gln-Glu-Tyr-Ala-NH2
T16 sequence: QEYA

[18] = tested on: T17, H-Gln-Glu-Tyr-NH2
T17 sequence: QEY

[19] = tested on: T18, H-Gln-Glu-Tyr-Phe-NH2
T18 sequence: QEYF

[20] = tested on: T19, H-Gln-Gly-OH
T19 sequence: QG

[21] = tested on: T20, H-Gln-Gly-Pro-OH
T20 sequence: QGP

[22] = tested on: T21, H-Gln-His-Tyr-Phe-NH2
T21 sequence: QHYF

[23] = tested on: T22, H-Gln-Lys-Arg-Leu-NH2
T22 sequence: QKRL

[24] = tested on: T23, H-Gln-Phe-Ala-NH2
T23 sequence: QFA

[25] = tested on: T24, H-Gln-Pro-Tyr-Phe-NH2
T24 sequence: QPYF

[26] = tested on: T25, H-Gln-Ser-Tyr-Phe-NH2
T25 sequence: QSYF

[27] = tested on: T26, H-Gln-Trp-Ala-NH2
T26 sequence: QWA

[28] = tested on: T27, H-Gln-Tyr-Ala-OH
T27 sequence: QYA

[29] = tested on: T28, H-Gln-cyclo(Nε-Lys-Arg-Pro-Ala-Gly-Phe)
T28 sequence: QKRPAGF

[30] = tested on: T29, H-βhomoGln-Phe-Lys-Arg-Leu-Ala-NH2
T29 sequence: QFKRLA

[31] = tested on: T30, [Gln^1]-FPP
T30 sequence: QEP

[32] = tested on: T31, [Gln^1]-Gastrin
T31 sequence: QGPWLEEEEEAYGWMDF

[33] = tested on: T32, [Gln^1]-GnRH
T32 sequence: QHWSYGLRPG

[34] = tested on: [Gln^1]-Neurotensin
[35] = molecular target: [Gln^3]-glucagon(3-29) (UniProt P01275)
[36] = tested on: T33, [Gln^5]-substance P(5-11)
T33 sequence: QQFFGLM

Chain of recombinant human glutaminyl cyclase (QC, EC 2.3.2.5) (human) (Q16769 29-361 limits assumed): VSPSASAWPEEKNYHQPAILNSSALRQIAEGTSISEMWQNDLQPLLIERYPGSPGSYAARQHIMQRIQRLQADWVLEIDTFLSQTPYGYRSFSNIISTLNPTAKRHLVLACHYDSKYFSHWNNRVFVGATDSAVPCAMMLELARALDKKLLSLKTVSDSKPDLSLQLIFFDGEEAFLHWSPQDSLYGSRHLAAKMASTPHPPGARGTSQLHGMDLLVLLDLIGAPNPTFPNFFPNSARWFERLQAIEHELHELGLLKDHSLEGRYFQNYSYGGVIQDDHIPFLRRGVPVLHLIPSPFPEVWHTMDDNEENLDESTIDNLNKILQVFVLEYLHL
Chain of [Gln^3]-glucagon(3-29) (P01275 23-49): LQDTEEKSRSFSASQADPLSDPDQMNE

Ki [1]: 600 µM
Substance: H-His-Trp-OH (peptide)

Substance: glutaminyl cyclase from Carica papaya latex
conversion to the pyroglutamyl peptide (MALDI-TOF) [2]: The methylated glutaminyl residue was only converted into a pyroglutamyl residue by papaya QC | KM (substrate conversion by QC) [3]: 197 µM | KM (substrate conversion by QC) [4]: 164 µM | KM (substrate conversion by QC) [5]: 216 µM | KM (substrate conversion by QC) [6]: 212 µM | KM (0.05 M Tricine-NaOH, pH 8.0) [7]: 0.137 mM | KM (0.05 M Tricine-NaOH, pH 8.0, 0.5 M KCl) [7]: 0.143 mM | KM (substrate conversion by QC) [7]: 158 µM | KM (0.05 M Tricine-NaOH, pH 8.0) [8]: 0.106 mM | KM (0.05 M Tricine-NaOH, pH 8.0, 0.5 M KCl) [8]: 0.065 mM | KM (substrate conversion by QC) [8]: 123 µM | KM (substrate conversion by QC) [9]: 124 µM | KM (substrate conversion by QC) [10]: 153 µM | KM (substrate conversion by QC) [11]: 44 µM | KM (substrate conversion by QC) [12]: 45 µM | KM (substrate conversion by QC) [13]: 102 µM | KM (substrate conversion by QC) [14]: 81 µM | KM (0.05 M Tricine-NaOH, pH 8.0) [15]: 0.109 mM | KM (0.05 M Tricine-NaOH, pH 8.0, 0.5 M KCl) [15]: 0.094 mM | KM (substrate conversion by QC) [15]: 107 µM | KM (0.05 M Tricine-NaOH, pH 8.0) [16]: 0.098 mM | KM (0.05 M Tricine-NaOH, pH 8.0, 0.5 M KCl) [16]: 0.094 mM | KM (substrate conversion by QC) [16]: 106 µM | KM (substrate conversion by QC) [17]: 113 µM | KM (substrate conversion by QC) [18]: 103 µM | KM (substrate conversion by QC) [19]: 100 µM | KM (substrate conversion by QC) [20]: 641 µM | KM (substrate conversion by QC) [21]: 333 µM | KM (substrate conversion by QC) [22]: 92 µM | KM (0.05 M Tricine-NaOH, pH 8.0) [23]: 0.102 mM | KM (0.05 M Tricine-NaOH, pH 8.0, 0.5 M KCl) [23]: 0.053 mM | KM (substrate conversion by QC) [23]: 118 µM | KM (substrate conversion by QC) [24]: 111 µM | KM (substrate conversion by QC) [25]: 149 µM | KM (substrate conversion by QC) [26]: 135 µM | KM (0.05 M Tricine-NaOH, pH 8.0) [27]: 0.079 mM | KM (0.05 M Tricine-NaOH, pH 8.0, 0.5 M KCl) [27]: 0.072 mM | KM (substrate conversion by QC) [27]: 78 µM | KM (substrate conversion by QC) [28]: 63 µM | KM (substrate conversion by QC) [29]: KM-values of 240±14 µM and 133±5 µM for human and papaya QC, respectively | KM (substrate conversion by QC) [30]: KM=3.1±0.3 mM | KM (substrate conversion by QC) [31]: 232 µM | KM (substrate conversion by QC) [32]: 34 µM | KM (substrate conversion by QC) [33]: 169 µM | KM (substrate conversion by QC) [34]: 40 µM | substrate conversion, determined qualitatively by MALDI-TOF [35]: * | substrate conversion, determined qualitatively by MALDI-TOF [36]: *
